The text below walks through data of PMC9464622, “The collectin SP-A and its trimeric recombinant fragment protect alveolar epithelial cells from the cytotoxic and proinflammatory effects of human cathelicidin in vitro” (Frontiers in Immunology, 2022).

The target in experiment [1] is Recombinant trimeric fragment of human SP-A1 (rfhSP-A) (human). Kind of experiment: other fluorescence titration; intrinsic tryptophan fluorescence of SP-A (75 nM) or rfhSP-A (52 nM) titrated with LL-37; 25°C, 5 mM Tris-HCl pH 7.4, without NaCl; excitation 295 nm; fit to the Hill equation; apparent KD.
The target of experiment [2] is Human surfactant protein A (native SP-A) (human) (UniProt Q8IWL2). Description: other fluorescence titration; intrinsic tryptophan fluorescence of SP-A (75 nM) or rfhSP-A (52 nM) titrated with LL-37; 25°C, 5 mM Tris-HCl pH 7.4, with 150 mM NaCl; excitation 295 nm; fit to the Hill equation; apparent KD.
The target of experiment [3] is Recombinant trimeric fragment of human SP-A1 (rfhSP-A) (human). The experiment is described as above.
Experiment [4] addresses Human surfactant protein A (native SP-A) (human) (UniProt Q8IWL2). Kind of experiment: native gel or EMSA + AUC + other: electron microscopy; degree of oligomerization of isolated SP-A: electrophoresis under nondenaturing conditions, electron microscopy and analytical ultracentrifugation, as reported elsewhere (refs 28, 29).

With Human cathelicidin LL-37 (peptide), the Kd in experiment [1] stood at 0.0735 nM; in experiment [2], 0.45 nM; in experiment [3], 1.2 nM.
As a reminder, the stoichiometry N is a count of units in the complex or per binding partner. Take “Human surfactant protein A (native SP-A) (from UniProt Q8IWL2 21-248) (natural protein)”: the stoichiometry N in experiment [4] is more than 18 subunits.
